Assay results: patent US20250270339A1
Changes are numbered by the printed parent chain. In names and notes the source's numbering stands.

B1: TFR.15.WH8.1.42A.LH 2+2 anti-TfR bispecific antibody (bispecific antibody, part only; not given: isotype IgG backbone and linker, not shown: another chain or arm of the molecule; a dimerising Fc or GST; large carriers; small tags and cut ends)
scFv: EIVLTQSPATLSLSPGERATLSCRASSSIRAMNWYQQKPGQAPRRLIYDTSNRATGIPARFSGSGSGTDFTLTISSLEPEDFAVYYCHQRSSYPWTFGGGTKVEIKGGSEGKSSGSGSESKSTGGSQVQLVQSGAEVKKPGASVKVSCKASGYTFTSYYMHWVRQAPGQGLEWMGNIYPGSGSSNYAQKFQGRVTMTRDTSTSTVYMELSSLRSEDTAVYYCTRSSYYGNFDTMDNWGQGTTVTVSS
B2: TFR.15.WH8.1.42A.L1 2+2 anti-TfR bispecific antibody (bispecific antibody, part only; not given: isotype IgG backbone and linker, not shown: another chain or arm of the molecule; a dimerising Fc or GST; large carriers; small tags and cut ends)
scFv: QVQLVQSGAEVKKPGASVKVSCKASGYTFTSYYMHWVRQAPGQGLEWMGNIYPGSGSSNYAQKFQGRVTMTRDTSTSTVYMELSSLRSEDTAVYYCTRSSYYGNFDTMDNWGQGTTVTVSSSPNSASHSGSAPQTSSAPGSQEIVLTQSPATLSLSPGERATLSCRASSSIRAMNWYQQKPGQAPRRLIYDTSNRATGIPARFSGSGSGTDFTLTISSLEPEDFAVYYCHQRSSYPWTFGGGTKVEIK
B3: TFR.15.WH8.1 2+2 anti-TfR bispecific antibody (bispecific antibody, part only; not given: isotype IgG backbone and linker, not shown: another chain or arm of the molecule; a dimerising Fc or GST; large carriers; small tags and cut ends)
scFv: QVQLVQSGAEVKKPGASVKVSCKASGYTFTSYYMHWVRQAPGQGLEWMGNIYPGSGSSNYAQKFQGRVTMTRDTSTSTVYMELSSLRSEDTAVYYCTRSSYYGNFDTMDNWGQGTTVTVSSGGSEGKSSGSGSESKSTGGSEIVLTQSPATLSLSPGERATLSCRASSSIRYMNWYQQKPGQAPRRLIYDTSNRATGIPARFSGSGSGTDFTLTISSLEPEDFAVYYCHQRSSYPWTFGGGTKVEIK
B4: TFR.15.WH8.1.24H 2+2 anti-TfR bispecific antibody (bispecific antibody, part only; not given: isotype IgG backbone and linker, not shown: another chain or arm of the molecule; a dimerising Fc or GST; large carriers; small tags and cut ends)
scFv: B3 scFv with S100H
B5: TFR.15.WH8.1.26H 2+2 anti-TfR bispecific antibody (bispecific antibody, part only; not given: isotype IgG backbone and linker, not shown: another chain or arm of the molecule; a dimerising Fc or GST; large carriers; small tags and cut ends)
scFv: B3 scFv with Y102H
B6: TFR.15.WH8.1.24N 2+2 anti-TfR bispecific antibody (bispecific antibody, part only; not given: isotype IgG backbone and linker, not shown: another chain or arm of the molecule; a dimerising Fc or GST; large carriers; small tags and cut ends)
scFv: B3 scFv with S100N
B7: TFR.15.WH8.1.42Q 2+2 anti-TfR bispecific antibody (bispecific antibody, part only; not given: isotype IgG backbone and linker, not shown: another chain or arm of the molecule; a dimerising Fc or GST; large carriers; small tags and cut ends)
scFv: B3 scFv with Y172Q
B8: TFR.15.WH8.1.42S 2+2 anti-TfR bispecific antibody (bispecific antibody, part only; not given: isotype IgG backbone and linker, not shown: another chain or arm of the molecule; a dimerising Fc or GST; large carriers; small tags and cut ends)
scFv: B3 scFv with Y172S
B9: TFR.15.WH8.1.42A 2+2 anti-TfR bispecific antibody (bispecific antibody, part only; not given: isotype IgG backbone and linker, not shown: another chain or arm of the molecule; a dimerising Fc or GST; large carriers; small tags and cut ends)
scFv: B3 scFv with Y172A
B10: TFR.15.WH8.1.42A.3x(G4S) 2+2 anti-TfR bispecific antibody (bispecific antibody, part only; not given: isotype IgG backbone and linker, not shown: another chain or arm of the molecule; a dimerising Fc or GST; large carriers; small tags and cut ends)
scFv: QVQLVQSGAEVKKPGASVKVSCKASGYTFTSYYMHWVRQAPGQGLEWMGNIYPGSGSSNYAQKFQGRVTMTRDTSTSTVYMELSSLRSEDTAVYYCTRSSYYGNFDTMDNWGQGTTVTVSSGGGGSGGGGSGGGGSEIVLTQSPATLSLSPGERATLSCRASSSIRAMNWYQQKPGQAPRRLIYDTSNRATGIPARFSGSGSGTDFTLTISSLEPEDFAVYYCHQRSSYPWTFGGGTKVEIK

molecular target: huTfR Apical Domain-Avi-His (human); assay: SPR (Carterra LSA), 2+2 captured
Sequence (chain, as listed by the source limits assumed): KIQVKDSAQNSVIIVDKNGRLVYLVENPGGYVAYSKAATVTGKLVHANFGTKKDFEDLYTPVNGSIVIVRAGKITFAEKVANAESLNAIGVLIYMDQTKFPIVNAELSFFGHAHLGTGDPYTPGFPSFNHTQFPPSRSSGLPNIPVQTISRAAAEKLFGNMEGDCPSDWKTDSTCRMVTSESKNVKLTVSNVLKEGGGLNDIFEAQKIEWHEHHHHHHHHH

| Kd | Binder |
| --- | --- |
| 190 nM | B1 |
| 150 nM | B2 |
| 28 nM | B3 |
| 5.6 nM | B4 |
| 280 nM | B5 |
| 140 nM | B6 |
| 62 nM | B7 |
| 510 nM | B8 |
| 160 nM | B9 |

molecular target: Cyno TfR apical permuted N-term Avi-His (cynomolgus); assay: SPR (Carterra LSA), 2+2 captured
Sequence (chain, as listed by the source limits assumed): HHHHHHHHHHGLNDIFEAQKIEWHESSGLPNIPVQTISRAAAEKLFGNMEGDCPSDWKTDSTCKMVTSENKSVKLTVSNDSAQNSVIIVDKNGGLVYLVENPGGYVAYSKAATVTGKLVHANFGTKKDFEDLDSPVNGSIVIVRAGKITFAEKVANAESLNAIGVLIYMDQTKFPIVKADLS

| Kd | Binder |
| --- | --- |
| 60 nM | B1 |
| 100 nM | B2 |
| 17 nM | B3 |
| 2.6 nM | B4 |
| 2200 nM | B5 |
| 47 nM | B6 |
| 40 nM | B7 |
| 690 nM | B8 |
| 88 nM | B9 |
| 74 nM | B10 |
